This note sets out measurements from publication PMC7384961 (Cell, 2020).

The target of this experiment is T1, FLAG-BirA(R118G)-TBL1XR1 Y446S (human, UniProt Q9BZK7 1-514, Y446S).
T1 sequence (looked up): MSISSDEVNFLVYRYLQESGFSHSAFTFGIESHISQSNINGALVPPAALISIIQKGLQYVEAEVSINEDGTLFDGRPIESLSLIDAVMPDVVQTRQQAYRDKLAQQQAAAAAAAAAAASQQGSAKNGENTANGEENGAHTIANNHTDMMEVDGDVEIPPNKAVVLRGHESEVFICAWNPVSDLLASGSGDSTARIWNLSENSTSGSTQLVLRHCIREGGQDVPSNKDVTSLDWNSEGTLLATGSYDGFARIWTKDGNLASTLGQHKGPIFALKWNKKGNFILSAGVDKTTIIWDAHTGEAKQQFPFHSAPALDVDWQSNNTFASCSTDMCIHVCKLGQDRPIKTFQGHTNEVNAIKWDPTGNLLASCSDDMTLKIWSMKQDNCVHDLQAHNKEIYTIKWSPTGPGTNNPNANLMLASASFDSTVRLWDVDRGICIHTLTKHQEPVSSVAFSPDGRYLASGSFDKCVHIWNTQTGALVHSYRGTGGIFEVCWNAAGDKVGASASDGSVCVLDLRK
The experiment can be described thus: proximity labelling.

B1: BACH2 (endogenous) (natural protein)
chain: not shown
On to B1, for which the “fold gain of interaction against TBL1XR1 WT” value is roughly 6 fold.
